Tests used:
Format in all cases: biochemical, Metallosphaera sedula
[1] = substrate: C=C(C)C(=O)SCCNC(=O)CCNC(=O)[C@H](O)C(C)(C)COP(=O)(O)OP(=O)(O)OC[C@H]1O[C@@H](n2cnc3c(N)ncnc32)[C@H](O)[C@@H]1OP(=O)(O)O; assay: UHPLC, 3-hydroxy-2-methylpropionyl-CoA formation; conditions: hydratase reaction, 100 mM Tris-HCl pH 7.8, 65 °C, apparent Km
Text: UHPLC, 3-hydroxy-2-methylpropionyl-CoA formation on crotonyl-CoA hydratase Msed_0384

[2] = substrate: CCCCC/C=C/C(=O)SCCNC(=O)CCNC(=O)[C@H](O)C(C)(C)COP(=O)(O)OP(=O)(O)OC[C@H]1O[C@@H](n2cnc3c(N)ncnc32)[C@H](O)[C@@H]1OP(=O)(O)O; assay: UHPLC, 3-hydroxyoctanoyl-CoA formation; conditions: hydratase reaction, 100 mM Tris-HCl pH 7.8, 65 °C, apparent Km
Text: UHPLC, 3-hydroxyoctanoyl-CoA formation on crotonyl-CoA hydratase Msed_0384

[3] = substrate: C=CC(=O)SCCNC(=O)CCNC(=O)[C@H](O)C(C)(C)COP(=O)(O)OP(=O)(O)OC[C@H]1O[C@@H](n2cnc3c(N)ncnc32)[C@H](O)[C@@H]1OP(=O)(O)O; assay: UHPLC, 3-hydroxypropionyl-CoA formation; conditions: hydratase reaction, 100 mM Tris-HCl pH 7.8, 65 °C, apparent Km
Text: UHPLC, 3-hydroxypropionyl-CoA formation on crotonyl-CoA hydratase Msed_0384

[4] = substrate: C/C=C/C(=O)SCCNC(=O)CCNC(=O)[C@H](O)C(C)(C)COP(=O)(O)OP(=O)(O)OC[C@H]1O[C@@H](n2cnc3c(N)ncnc32)[C@H](O)[C@@H]1OP(=O)(O)O; assay: UHPLC, 3-hydroxybutyryl-CoA formation; conditions: hydratase reaction, 100 mM Tris-HCl pH 7.8, 65 °C, apparent Km
Text: UHPLC, 3-hydroxybutyryl-CoA formation on crotonyl-CoA hydratase Msed_0384

[5] = substrate: C[C@H](O)CC(=O)SCCNC(=O)CCNC(=O)[C@H](O)C(C)(C)COP(=O)(O)OP(=O)(O)OC[C@H]1O[C@@H](n2cnc3c(N)ncnc32)[C@H](O)[C@@H]1OP(=O)(O)O; assay: Ccr-coupled dehydratase assay, UHPLC; conditions: dehydratase reaction, 100 mM Tris-HCl pH 7.8, 42 °C, 1 mM NADPH and NaHCO3 for coupling enzyme, apparent Km
Text: Ccr-coupled dehydratase assay, UHPLC on crotonyl-CoA hydratase Msed_0384

B1: crotonyl-CoA hydratase Msed_0384 (Metallosphaera sedula DSM 5348) (protein)
chain: MRTVIVEKGDVGIIRLNRPEKLNAINMEMVYDLVEALNELKSQVRAVIITGNGKAFSAGADVKEMLDMSIEQVTREGHMPLWDALRGFRKPVIAALNGVAAGGGLELAMACDMIVAGESARLGQPEINLGIIPGAGGTQRLTRTVGKYRAMEMVLTGRLITAWDAYRMGLVTKVVPDEALIPEAMRLAREITGKSGFAVELGKEAVNRALDTLLQQGLDLERRNFYVTLVSQDGREGMKAFLEKRKPEWKT
notes: full-length, N-terminal His10-tag (pET16b), recombinant in E. coli Rosetta 2 (DE3)
Km [1]: 70 ± 30 µM
Km [2]: 500 ± 60 µM
Km [3]: 180 ± 30 µM
Km [4]: 220 ± 20 µM
Km [5]: 50 ± 10 µM

— article PMC7078158, “Enzymes Catalyzing Crotonyl-CoA Conversion to Acetoacetyl-CoA During the Autotrophic CO2 Fixation in Metallosphaera sedula” (Frontiers in Microbiology, 2020)
